Several values for one entry are separate records, joined by “and”; a condition that tells them apart may be missing. Equal entries are not always repeated.
Assays:
[1] = target: the molecule itself; experiment: crystal structure; vapor diffusion, protein 38 mg/ml; 30% PEG 6000, 1 M lithium chloride, 100 mM sodium acetate; Zn SAD; oligomers from the asymmetric unit and crystal packing
[2] = target: the molecule itself; experiment: cross-linking; 5 μg purified B1 with 0.05, 0.1, 0.2% (w/v) glutaraldehyde, on ice 30 min, 20 mM Hepes pH 7.4; 8–16% SDS-PAGE, coomassie
[3] = target: the molecule itself; experiment: AUC; sedimentation velocity of the gel filtration peaks; Beckman XL-1, 130,000 g, 20 °C, >12 h; 20 mM Tris, pH 8.0, 100 mM NaCl; SEDFIT continuous c(s) model
[4] = target: the molecule itself; experiment: cross-linking; 0.3 μg purified HA-PML(1–256) with increasing glutaraldehyde, on ice 30 min, 20 mM Hepes pH 7.4; 4–12% SDS-PAGE, anti-HA immunoblot
[5] = target: the molecule itself; experiment: SEC; gel filtration on a calibrated Superdex 200 column; 20 mM Tris, pH 8.0, 100 mM NaCl

B1: PML B1-box, residues 120-168, wild type (domain or fragment, UniProt P29590 120-168, looked up)
chain: RQIVDAQAVCTRCKESADFWCFECEQLLCAKCFEAHQWFLKHEARPLAE
notes: PML (TRIM19) B1-box, residues 120-168; residues 120-167 are seen in the crystallographic monomer; Four molecules in the asymmetric unit; also called WT B1; source: E. coli BL21 (DE3), purified (His-Trap, thrombin, Q, Phenyl, S100); not shown: His tag, N-terminal, cleaved
Does B1 bind [1]?
Result: binds

B2: PML B1-box I122P/V123P (domain or fragment, UniProt P29590 120-168, looked up)
chain: RQPPDAQAVCTRCKESADFWCFECEQLLCAKCFEAHQWFLKHEARPLAE
notes: PML (TRIM19) B1-box, residues 120-168, double mutant I122P/V123P; PDB 6IMQ holds the wild-type parent; source: E. coli BL21 (DE3), purified (His-Trap, thrombin, Q, Phenyl, S100); not shown: His tag, N-terminal, cleaved
Does B2 bind [2]?
Result: binds

B3: PML_(1–256) I122P/V123P (domain or fragment, UniProt P29590-1 1-256, looked up)
chain: MEPAPARSPRPQQDPARPQEPTMPPPETPSEGRQPSPSPSPTERAPASEEEFQFLRCQQCQAEAKCPKLLPCLHTLCSGCLEASGMQCPICQAPWPLGADTPALDNVFFESLQRRLSVYRQPPDAQAVCTRCKESADFWCFECEQLLCAKCFEAHQWFLKHEARPLAELRNQSVREFLDGTRKTNNIFCSNPNHRTPTLTSIYCRGCSKPLCCSCALLDSSHSELKCDISAEIQQRQEELDAMTQALQEQDSAFGA
notes: PML (TRIM19), residues 1-256, double mutant I122P/V123P; source: E. coli BL21 (DE3), purified (His-Trap, thrombin, Q, Phenyl, Superdex 200); not shown: SUMO (human), N-terminal, cleaved; His tag, N-terminal, cleaved
Does B3 bind [3]?
Result: binds

B4: HA-PML_(1–256) I122P/V123P (domain or fragment, UniProt P29590-1 1-256, looked up)
chain: MEPAPARSPRPQQDPARPQEPTMPPPETPSEGRQPSPSPSPTERAPASEEEFQFLRCQQCQAEAKCPKLLPCLHTLCSGCLEASGMQCPICQAPWPLGADTPALDNVFFESLQRRLSVYRQPPDAQAVCTRCKESADFWCFECEQLLCAKCFEAHQWFLKHEARPLAELRNQSVREFLDGTRKTNNIFCSNPNHRTPTLTSIYCRGCSKPLCCSCALLDSSHSELKCDISAEIQQRQEELDAMTQALQEQDSAFGA
notes: PML (TRIM19), residues 1-256, double mutant I122P/V123P; See note of m9; source: purified
Does B4 bind [4]?
Result: binds

B5: PML RBCC fragment, residues 1-256 (RING, B1, B2 and a 20-residue coiled-coil), wild type (domain or fragment, UniProt P29590-1 1-256, looked up)
chain: MEPAPARSPRPQQDPARPQEPTMPPPETPSEGRQPSPSPSPTERAPASEEEFQFLRCQQCQAEAKCPKLLPCLHTLCSGCLEASGMQCPICQAPWPLGADTPALDNVFFESLQRRLSVYRQIVDAQAVCTRCKESADFWCFECEQLLCAKCFEAHQWFLKHEARPLAELRNQSVREFLDGTRKTNNIFCSNPNHRTPTLTSIYCRGCSKPLCCSCALLDSSHSELKCDISAEIQQRQEELDAMTQALQEQDSAFGA
notes: PML (TRIM19), residues 1-256: RING, B1-box, B2-box and a 20-residue coiled-coil; His tag lay between SUMO and PML; SUMO-His removed after thrombin digestion; Mixture of monomer, dimer, tetramer and N-mer in solution; also called PML_(1–256); RBCC_(1–256); source: E. coli BL21 (DE3), purified (His-Trap, thrombin, Q, Phenyl, Superdex 200); not shown: SUMO (human), N-terminal, cleaved; His tag, …
With B5 as the protein, how does the “stoichiometry N” value [3] read?
The value was 2 and 4.

B6: PML_(1–256) W157E (domain or fragment, UniProt P29590-1 1-256, looked up)
chain: MEPAPARSPRPQQDPARPQEPTMPPPETPSEGRQPSPSPSPTERAPASEEEFQFLRCQQCQAEAKCPKLLPCLHTLCSGCLEASGMQCPICQAPWPLGADTPALDNVFFESLQRRLSVYRQIVDAQAVCTRCKESADFWCFECEQLLCAKCFEAHQEFLKHEARPLAELRNQSVREFLDGTRKTNNIFCSNPNHRTPTLTSIYCRGCSKPLCCSCALLDSSHSELKCDISAEIQQRQEELDAMTQALQEQDSAFGA
notes: PML (TRIM19), residues 1-256, mutant W157E; source: E. coli BL21 (DE3), purified (His-Trap, thrombin, Q, Phenyl, Superdex 200); not shown: SUMO (human), N-terminal, cleaved; His tag, N-terminal, cleaved
Does B6 bind [5]?
Result: binds

B7: PML_(1–256) F158E (domain or fragment, UniProt P29590-1 1-256, looked up)
chain: MEPAPARSPRPQQDPARPQEPTMPPPETPSEGRQPSPSPSPTERAPASEEEFQFLRCQQCQAEAKCPKLLPCLHTLCSGCLEASGMQCPICQAPWPLGADTPALDNVFFESLQRRLSVYRQIVDAQAVCTRCKESADFWCFECEQLLCAKCFEAHQWELKHEARPLAELRNQSVREFLDGTRKTNNIFCSNPNHRTPTLTSIYCRGCSKPLCCSCALLDSSHSELKCDISAEIQQRQEELDAMTQALQEQDSAFGA
notes: PML (TRIM19), residues 1-256, mutant F158E; source: E. coli BL21 (DE3), purified (His-Trap, thrombin, Q, Phenyl, Superdex 200); not shown: SUMO (human), N-terminal, cleaved; His tag, N-terminal, cleaved
Does B7 bind [5]?
Result: binds

— article PMC6706441, “B1 oligomerization regulates PML nuclear body biogenesis and leukemogenesis” (Nature Communications, 2019)
